Seven molecules from article PMC12431857, “A multichaperone condensate enhances protein folding in the endoplasmic reticulum” (Nature Cell Biology, 2025) can be followed below.

B1: 21-residue peptide corresponding to the a0-a linker of PDIA6 (peptide)
peptide: GGRSGGYSSGKQGRSDSSSKK
notes: linker between domains a0 and a of human PDIA6; Limits worked out from the printed positions R142, K150, R153, K159, K160 of the linker mutants; also called linker peptide
B2: PDIA6 his-domain ab (residues 161-440) (domain or fragment, human, UniProt Q15084 161-440, looked up)
chain: DVIELTDDSFDKNVLDSEDVWMVEFYAPWCGHCKNLEPEWAAAASEVKEQTKGKVKLAAVDATVNQVLASRYGIRGFPTIKIFQKGESPVDYDGGRTRSDIVSRALDLFSDNAPPPELLEIINEDIAKRTCEEHQLCVVAVLPHILDTGAAGRNSYLEVLLKLADKYKKKMWGWLWTEAGAQSELETALGIGGFGYPAMAAINARKMKFALLKGSFSEQGINEFLRELSFGRGSTAPVGGGAFPTIVEREPWDGRDGELPVEDDIDLSDVELDDLGKDEL
notes: PDIA6, human, domains a and b with the C-terminal tail, residues 161-440; also called PDIA6 domain ab; his-TEV-domain ab; source: E. coli BL21-(DE3)-Lemo, purified (Ni-NTA, SEC); not shown: His6, N-terminal, kept
B3: Human PDIA6 lacking its ER signal sequence (residues 19-440) (natural protein, UniProt Q15084-1 19-440, looked up)
chain: GLYSSSDDVIELTPSNFNREVIQSDSLWLVEFYAPWCGHCQRLTPEWKKAATALKDVVKVGAVDADKHHSLGGQYGVQGFPTIKIFGSNKNRPEDYQGGRTGEAIVDAALSALRQLVKDRLGGRSGGYSSGKQGRSDSSSKKDVIELTDDSFDKNVLDSEDVWMVEFYAPWCGHCKNLEPEWAAAASEVKEQTKGKVKLAAVDATVNQVLASRYGIRGFPTIKIFQKGESPVDYDGGRTRSDIVSRALDLFSDNAPPPELLEIINEDIAKRTCEEHQLCVVAVLPHILDTGAAGRNSYLEVLLKLADKYKKKMWGWLWTEAGAQSELETALGIGGFGYPAMAAINARKMKFALLKGSFSEQGINEFLRELSFGRGSTAPVGGGAFPTIVEREPWDGRDGELPVEDDIDLSDVELDDLGKDEL
notes: Homodimer by SEC-MALS; Isotope-labelled (methyl labelling) for NMR; also called PDIA6 WT; PDIA6 full-length; not shown: His6, N-terminal, cleaved
B4: PDIA6 5x linker mutant (R142Q, K150N, R153Q, K159N and K160N) (natural protein, human, UniProt Q15084 19-440, looked up)
chain: B3 chain with R124Q, K132N, R135Q, K141N, K142N
notes: PDIA6, human, residues 19-440; source: E. coli BL21-(DE3)-Lemo, purified as the WT protein; not shown: His6, N-terminal, cleaved
B5: DyLight 488-PDIA6 (N-terminally tagged, residues 19-440) (natural protein, human, UniProt Q15084 19-440, looked up)
chain: B3 chain
modifications: DyLight 488 amine-reactive dye on the N-terminus
notes: Same construct as m1, fluorescently labelled for MST (0.75-1.5 moles dye per mole protein); not shown: His6, N-terminal, cleaved
B6: PDIA6 (K150N, R153Q, K159N) linker mutant (natural protein, human, UniProt Q15084 19-440, looked up)
chain: B3 chain with K132N, R135Q, K141N
notes: as for B4
B7: PDIA6 (R142Q, K150N, R153Q) linker mutant (natural protein, human, UniProt Q15084 19-440, looked up)
chain: B3 chain with R124Q, K132N, R135Q
notes: as for B4

Data set [1] concerns the target B3. Nature of the data set: NMR titration; 2D [13C,1H]-HMQC of methyl-labelled full-length PDIA6 with 10 mM Ca2+, 10 eq. linker peptide added, no crowding agent, 37 °C; read-out: populations of conformations P and O of domain b; also after addition of 1 M KCl. The settings on record: both partners purified.
In data set [2] the target is T1, Human BiP lacking its ER signal sequence (residues 19-654) (human, UniProt P11021 19-654).
T1 construct: Isotope-labelled (Ile, Met, Val methyl groups) where it was the observed protein in NMR; also called Hsp70 BiP; GRP78; not shown: His6, N-terminal, cleaved
Nature of the data set: NMR titration; 2D [13C,1H]-HMQC or [15N,1H]-HSQC of 100 μM labelled protein without and with 2 eq. of the unlabelled partner; chemical shift perturbation mapping; 37 °C. The settings on record: both partners purified.

Data set [3] deals with the molecule itself. Kind of data set: SEC-MALS; S200 10/300 GL column, 25 °C, SEC buffer (25 mM HEPES pH 7.5, 150 mM KCl, 10 mM MgCl2); proteins eluted at 20 μM.
For data set [4], the target named is T1, Human BiP lacking its ER signal …. Kind of data set: MST; 20 nM N-terminally tagged DyLight 488-PDIA6 with increasing BiP; SEC buffer with 5 mM ADP, 1 mM KH2PO4/K2HPO4, 0.05% Tween, 1 mM CaCl2; 30 min at 25 °C; Monolith NT.115; triplicates. The settings on record: both partners purified.

Where a chain is given by its changes, count along the chain named. Numbers in names are those of the source.

T1 sequence (P11021 19-654): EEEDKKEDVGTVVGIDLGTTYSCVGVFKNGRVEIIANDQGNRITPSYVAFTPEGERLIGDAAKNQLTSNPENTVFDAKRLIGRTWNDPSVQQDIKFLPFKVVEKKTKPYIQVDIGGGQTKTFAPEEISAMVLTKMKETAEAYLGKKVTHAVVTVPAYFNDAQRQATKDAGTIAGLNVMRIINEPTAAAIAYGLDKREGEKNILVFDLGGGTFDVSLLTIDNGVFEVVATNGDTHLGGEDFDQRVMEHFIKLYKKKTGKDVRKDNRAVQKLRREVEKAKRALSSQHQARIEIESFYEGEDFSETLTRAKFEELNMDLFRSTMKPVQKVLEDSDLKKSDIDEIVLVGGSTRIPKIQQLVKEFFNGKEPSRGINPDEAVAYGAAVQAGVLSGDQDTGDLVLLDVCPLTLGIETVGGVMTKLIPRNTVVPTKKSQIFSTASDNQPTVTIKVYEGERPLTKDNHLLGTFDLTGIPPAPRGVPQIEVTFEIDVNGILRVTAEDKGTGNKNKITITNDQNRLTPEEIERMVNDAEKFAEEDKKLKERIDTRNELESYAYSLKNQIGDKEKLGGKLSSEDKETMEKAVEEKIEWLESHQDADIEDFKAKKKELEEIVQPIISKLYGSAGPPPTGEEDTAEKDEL

As to B1, the binding result in data set [1] was “binds”.
With B2, in data set [2], the binding result was “binds”.
As for B3, the binding result in data set [2] is recorded as “binds”. Also, the “stoichiometry N” value in data set [3] turned out to be 2.
Turning to B4, the “stoichiometry N” value in data set [3] is 2.
Regarding B5, the Kd in data set [4] was around 50 µM.
For the molecule B6, in data set [3], the “stoichiometry N” value amounted to 2.
Regarding B7, in data set [3], the “stoichiometry N” value worked out at 2.
